The record followed here is patent US9974870B2, “Compositions and methods for treatment and imaging using nanoparticles” (Washington University, priority 2014, dated 2018).

One data set deals with T1, caspase-3 (Homo sapiens, UniProt P42574).
T1 construct: purchased Cal Biochem
T1 sequence (P42574 29-175 limits assumed): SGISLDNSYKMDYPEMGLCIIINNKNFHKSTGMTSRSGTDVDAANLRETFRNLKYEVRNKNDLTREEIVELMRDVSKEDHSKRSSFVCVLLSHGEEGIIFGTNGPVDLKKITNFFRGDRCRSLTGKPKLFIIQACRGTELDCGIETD
T1 sequence (P42574 176-277 limits assumed): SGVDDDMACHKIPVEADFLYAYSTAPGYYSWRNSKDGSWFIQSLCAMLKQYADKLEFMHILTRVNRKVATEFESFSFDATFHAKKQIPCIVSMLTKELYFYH
The data set is described as follows: Caspase-3 mediated hydrolysis, enzyme kinetics by radio-HPLC. It is filed as biochemical. The note with it: caspase-3 290 pM, 37° C., pH 7.4. How it is done: However, the dimer readily converts back to single molecules under the high reducing conditions such as used to prepare the ^99mTc chelate. Kinetic analysis of caspase-3 activation with [^125I]LS370 using a radionuclide detector (radio-high-performance liquid chromatography) gave a KM and kcat of 15±3 1 μM and […], respectively.
[^125I]LS370 was dissolved in caspase buffer {100 mM NaCl, 50 mM 4-(2-hydroxyethyl)-1-piperazineethanesulfonic acid, 10 mM DTT, 1 mM ethylenediaminetetraacetic acid, 10% glycerol, and 0.1% 3-[(3-cholamidopropyl) dimethylammonio]-1-propanesulfonate, pH 7.4} at concentrations varying from 2.5 to 20 μM. […] These solutions were allowed to react at 37° C. for 180 min and were sampled every 30 min. Substrate hydrolysis was monitored by radio-high-performance liquid chromatography (Vydac, C-18, 4.6×250 mm, 1 ml/m, A=H2O, 0.1% TFA, B=ACN, 0.1% TFA; 10-90% B, 30 min, linear gradient) of these time point samples. Comparison to a standard caspase-3 substrate (Ac-DEVD-pNA) and calculation of the enzyme kinetic parameters were carried out as previously described.

Data set [1] is described as follows: Tissue biodistribution in tumor-bearing Balb/c mice. It is filed as in vivo. The following applies: female, Balb/c, mouse, iv, 0.185 MBq, total radioactivity, 1 h post injection. The method, then: The structure-activity relationship was evaluated in vivo by performing a tissue biodistribution study in naive (FIG. 26) and tumor-bearing Balb/c mice (FIG. 23). […] The tumor/blood ratios for both [^125I]LS370 and [^125I]LS734 was 0.6±0.03. The tumor/muscle ratios were similar as well but higher than the tumor/blood ratios, [^125I]LS734 (2.2±0.1) and [^125I]LS370 (2.1±0.3). Thyroid uptake was 73±21 and 115±73 for [^125I]LS370 and [^125I]LS734, respectively.
All animal studies were conducted according to guidelines on the humane care and use of laboratory animals under protocols approved by the Animal Studies Committee at Washington University School of Medicine. For tissue biodistribution studies, syngeneic breast tumor models were prepared via bilateral orthotopic implantation of luciferase-transfected 4T1 mouse mammary carcinoma cells (4T1luc, 5×10^5 cells per tumor) in the mammary fat pads of 6-week-old, female Balb/c mice (NCI, Frederick, Md., USA). Studies were conducted when the tumors reached about 3 mm maximum diameter (−10 days). Healthy female Balb/c mice (n=4 per time point) were anesthetized with 1-2% vaporized isoflurane and injected via tail vein with 0.185 MBq of [^125I]LS370 or [^125I]LS734 (specific activities: [^125I]LS370-40×10^6 MBq/mmol; [^125I]LS734-10×10^6 MBq/mmol). At 1 h post injection, mice were killed. Organs of interest were removed and blotted dry. The radioactivity was measured in a gamma counter (Packard II gamma counter). Diluted standard doses (1:100) were prepared and counted along with the samples. Data points were corrected for radioactive decay. The percent injected dose per gram of tissue (% ID/g) was calculated.

The next data set concerns MDA-MB-231 cells. The data set is described as follows: Cell uptake and efflux studies. The class given is cell-based, human. The following applies: untreated MDA-MB-231 cells, 2 h postincubation at 37° C. From the text: The goals of the cell-uptake studies were to (1) assess any changes in the structure-activity relationship resulting from the modular and responsive probe design and (2) evaluate the retention of the iodine containing hydrophobic peptide moiety in treated and untreated cells. Metastatic human breast MDA-MB-231 cells were used to evaluate whether the amino acid sequence modulation would enhance internalization, and how the probe would respond (intracellular) postchemotherapy. In the untreated cells, there was a higher uptake (P<0.001) of [^125I]LS734 (3.6±0.5) than [^125I]LS370 (0.3±0.3) at 2 h postincubation at 37° C. (FIG. 22A). […] The amount of iodinated fraction released by the untreated and treated cells at 3 h (post 2 h incubation and removal of excess activity) was used as a measure of the efflux activity.
MDA-MB-231 cells used for the uptake and efflux assay were grown on 24-well tissue culture plates until they were 80-90% confluent with […] cells per well. […] The experimental treatment group of cells was treated with 10 ng/ml of SN-38 (7-ethyl-10-hydroxy-camptothecin, Sigma Aldrich) for 24 h. Then, the SN-38 was removed, and the second chemotherapeutic drug, UCN-01 (Sigma Aldrich), was introduced at a concentration of […] in 0.1% BSA per well. At this point, respective radioactive solutions ([^125I]LS734 or [^125I]LS370, 0.02 μg per well; specific activities: [^125I]LS370-40×10^6 MBq/mmol; [^125I]LS734-10×10^6 MBq/mmol) were added to treated and control groups. The solutions were added drop-wise into the wells and gently mixed to ensure homogeneous distribution. The final volume per well was 240 μl, and the plates were incubated at 37° C. (5% CO2) for 2 h. After incubation, the supernatant (fraction 1) was collected, and the cells were washed twice with 250 μl of cold serum-free media. […] Fraction 2 represents the cell efflux, which is the amount of radioactivity released from cells after the 2 h uptake. […] The radioactivity in each fraction was measured in a well counter (Packard II gamma counter).

For data set [2], the target named is T2, MMP9 (Homo sapiens, UniProt P14780). The data set is described as follows: In vitro MMP9 experiment with ^64Cu-labeled peptide-functionalized gold NPs. The class given is biochemical. How it is done: Once surface-functionalized with the peptide and PEG, an experiment was performed in PBS in order to characterize the ability of MMP9 to cleave the peptide present on the nanoparticle surface. In this experiment, ^64Cu was chelated to DTPA on the peptide attached to the NP. The suspension was incubated with MMP9 for 1.5 hours and then the supernatant solution was separated from the NPs by centrifugal filtration. […] To further confirm the presence of the cleaved peptide, high performance liquid chromatography (HPLC) was performed on the supernatant solutions, and co-registered UV and radioactive peaks associated with the radiolabeled peptide fragment were observed (FIG. 6).
1 mL of peptide-functionalized gold NPs was centrifuged, supernatant decanted, and resuspended in 0.1 M NH4OAc. 110 μCi ^64Cu, provided by the Washington University Cyclotron Facility, was added to the NP pellet and shaken at 45° C. for 1 hour. Radiolabeled NPs were purified from nonchelated ^64Cu by centrifugation. Then NP suspensions were incubated with 20 ng MMP9 for 1.5 hours, after which 450 μL PBS was added and supernatant was purified from the NPs by centrifugation filtration using a 10 k MW filter. Supernatant and NP pellets were counted for radioactivity in a PerkinElmer 1480 Automatic Gamma Counter.

Data set [3] has as its target T2, MMP9. In words: In vitro MMP9 cleavage of ^111In from non-radioactive gold nanoparticle probe. It is filed as biochemical. The method, then: (§1) To further validate the specificity of the activation, an identical experiment as the one just described was performed with an ^111In-labeled non-radioactive gold nanoparticle probe, similar to a radioactive nanoparticle previously reported. An initial in vitro validation was performed; when incubated with MMP9 for 48 hours, 48% ^111In was cleaved from the nanoparticle compared to only 16% without MMP9. With this singly-labeled probe, an alternative in vivo ratiometric imaging approach was performed (FIG. 18A). Rather than compare the ratio between two gamma energy channels, uptake intensity ratios between the lungs and kidneys or bladder were quantified. Importantly, clear distinctions were observed between the MMP9 and control groups. […] Differences were also observed 5 hours after injection (FIG. 18C), where the bladder/lung ratio remained elevated in the MMP9-incubated condition (0.19±0.15) compared to the control (0.03±0.003).
The dual-radiolabeled nanocrystal suspension was separated into 50 μL samples containing 20 ng MMP9 and incubated at 37° C. for 9 hours (along with control that was incubated without MMP9). 50 μL (˜80 μCi ^199Au and 40 μCi ^111In) was then intratracheally injected into C57 Black6 mice and two-channel SPECT imaging was performed as described above. […]

Data set [4] has as its target T2, MMP9. In words: Organ ratiometric SPECT imaging (kidney/lung, bladder/lung) after MMP9 pre-incubation. The class given is in vivo, C57 Black6 mice. The method, then:
as §1
The dual-radiolabeled nanocrystal suspension was separated into 50 μL samples containing 20 ng MMP9 and incubated at 37° C. for 9 hours (along with control that was incubated without MMP9). 50 μL (˜80 μCi ^199Au and 40 μCi ^111In) was then intratracheally injected into C57 Black6 mice and two-channel SPECT imaging was performed as described above. In another experiment, a similar protocol was performed with the non-radioactive gold NP core functionalized with an ^111In-labeled, MMP9-cleavable peptide. Briefly, 10 mL of 10 nm diameter gold nanoparticles (Sigma Aldrich) was centrifuged at 10 k g-force for 70 minutes, supernatant was removed, the pellet was resuspended in 1 mL of ultrapure water containing 2.2 mg mPEG-SH (MW=5000) and 1.0 mg pMMP9 peptide, and shaken overnight. Suspension was again centrifuged at 10 k g-force, supernatant removed, and the pellet was resuspended in 500 μL 0.1 M NH4OAc buffer (pH 5.5). Then 15 μL ^111InCl (5.23 mCi) was added and shaken at 45° C. for 90 minutes. Suspension was centrifuged at 10 k g-force for 90 minutes, supernatant removed, and the pellet containing 2.96 mCi was resuspended in 500 μL buffer. 50 μL aliquots with or without 10 ng MMP9 were prepared and shaken at 37° C. for 16 hours. 50 μL (˜230 μCi ^111In) was then intratracheally injected into C57 Black6 mice (n=4/group) and SPECT imaging was performed using the 245 keV channel immediately upon injection and 5 and 24 hours later.

The mark [5] stands for this setting: MMP9-incubated probe, immediately upon injection.
The mark [6] stands for this setting: control probe without MMP9, immediately upon injection.

Read-outs that look alike come from different tables or passages of the source. Non-standard residues stand in square brackets, D forms with d. Residues, ends and D or L forms follow the SMILES beside them. Primed or numbered codes have the meaning given here. DTPA′ = chelating agent complexing 111In or 64Cu; Tyr(3-I) = N[C@@H](Cc1ccc(O)c(I)c1)C(=O)O; Ahx = NCCCCCC(=O)O Some results are limits rather than exact numbers.

T2 sequence (P14780 94-707, species assumed): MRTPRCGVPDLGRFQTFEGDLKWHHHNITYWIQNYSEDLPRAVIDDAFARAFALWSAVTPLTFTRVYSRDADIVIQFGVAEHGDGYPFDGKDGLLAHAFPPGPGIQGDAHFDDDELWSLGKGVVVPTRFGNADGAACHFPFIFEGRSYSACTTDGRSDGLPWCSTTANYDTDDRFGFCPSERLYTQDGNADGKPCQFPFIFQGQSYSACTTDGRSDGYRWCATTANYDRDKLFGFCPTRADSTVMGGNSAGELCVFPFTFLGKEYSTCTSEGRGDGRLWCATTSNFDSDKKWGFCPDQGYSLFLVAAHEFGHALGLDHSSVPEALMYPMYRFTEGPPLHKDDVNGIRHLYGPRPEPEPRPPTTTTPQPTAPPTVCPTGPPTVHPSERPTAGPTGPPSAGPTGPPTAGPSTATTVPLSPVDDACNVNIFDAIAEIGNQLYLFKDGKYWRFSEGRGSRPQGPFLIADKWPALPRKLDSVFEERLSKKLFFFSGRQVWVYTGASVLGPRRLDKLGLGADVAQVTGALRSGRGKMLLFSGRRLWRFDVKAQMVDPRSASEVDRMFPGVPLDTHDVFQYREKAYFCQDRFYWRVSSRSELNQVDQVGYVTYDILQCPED

Turning to `CC(=O)N[C@@H](CC(=O)O)C(=O)N[C@@H](CCC(=O)O)C(=O)N[C@H](C(=O)N[C@@H](CC(=O)O)C(=O)Nc1ccc([N+](=O)[O-])cc1)C(C)C` [Ac-DEVD (SEQ ID NO:2)-pNA, Ac-DEVD-pNA], on caspase-3, the Km – broadly, the concentration of substrate that gives half-maximal velocity – came to 11 µM and the kcat is 2.4 M/s.

Regarding `CC(=O)NCCCCCC(=O)N[C@@H](Cc1ccc(O)c(I)c1)C(=O)NCCCCCC(=O)N[C@@H](CC(=O)O)C(=O)N[C@@H](CCC(=O)O)C(=O)N[C@H](C(=O)N[C@@H](CC(=O)O)C(=O)NCC(=O)N[C@@H](CCCCN)C(=O)NCC(=O)N[C@@H](CS)C(N)=O)C(C)C` [[^125I]LS370] (Ac-[Ahx][Tyr(3-I)][Ahx]DEVDGKGC-NH2), the tissue to tissue ratio at 1 h in data set [1] (4T1luc tumor / blood, read-out: tumor/blood ratio) is 0.6 ± 0.03; in data set [1] (4T1luc tumor / muscle, read-out: tumor/muscle ratio), 2.1 ± 0.3. For the same compound, the tissue uptake (usually the percentage of the injected dose found per gram of tissue) at 1 h in data set [1] (thyroid) came to 73 ± 21 %ID/g. In the data set on MDA-MB-231 cells, this compound displayed a cell uptake of 0.3±0.3.

As to “^64Cu-labeled nanoparticles ({DTPA′}-GPLGVRGKGYG[Ahx]C-NH2; not fully specified (residue 13); also: DTPA chelates 64Cu)”, the “radioactivity observed in the supernatant after incubation with MMP9” value with MMP9 [2] ([…] incubation with MMP9, PBS, centrifugal filtration) is 23%. Also, the “radioactivity observed in the supernatant, control without MMP9” value in the data set with MMP9 [2] ([…], without MMP9) is reported as under 5%.

Regarding “^111In-labeled non-radioactive gold nanoparticle probe ({DTPA′}-GPLGVRGKGYG[Ahx]C-NH2; not fully specified (residue 13); printed as Gly-Pro-Leu-Gly-Val-Arg-Gly-Lys-Gly-Tyr-Gly-Ahx-Cys; also: 111In chelated by DTPA, Cys thiol anchored to gold nanoparticle)”, the “^111In cleaved from the nanoparticle” value with MMP9 [3] (incubated with MMP9 for 48 hours) is recorded as 48%; with MMP9 [3] (without MMP9), 16%. The bladder/lung uptake ratio with MMP9 [4] (MMP9-incubated probe, 5 hours after injection) is given as 0.19±0.15; with MMP9 [4] (setting [5]), 0.56±0.24; with MMP9 [4] (control probe without MMP9, 5 hours after injection), 0.03±0.003; in the data set with MMP9 [4] (setting [6]), 0.08±0.04. Also, the kidney/lung uptake ratio with MMP9 [4] (setting [5]) was 0.12±0.04; with MMP9 [4] (setting [6]), 0.01±0.004.
